The target of test [1] is HLA-A2.1 on TAP-deficient T2 cells (human). Description: T2 cell HLA-A2.1 stabilisation assay, flow cytometry with BB7.2. (In flow cytometry, cells or beads pass a laser one at a time.)
Test [2] shares this target. The settings on record: remark: other sources report otherwise.

Like-named read-outs stand apart in the source and are kept apart here.

Two molecules from patent US6685944 can be followed below.

As to DLMGYIPVV (modifications not checked) [C7A2-8V peptide], the FI0.5 in test [1] is 15 µM. Molecule DLMGYIPLV (modifications not checked) [wild-type C7A2 peptide (C7A2-WT)] registered an FI0.5 in test [2] of 10 µM.
